Measurements published in patent publication US20220306759A1 (CYTOMX THERAPEUTICS, published 2022).

How the values were obtained:
[1] = biological target: T1, recombinant human CD71 protein (human, UniProt P02786 89-760); assay: ELISA, 1 µg/mL recombinant human CD71, uncleaved
T1 construct: also called recombinant CD71
Method: (§1) The amount of bound antibody was detected by incubation and detection by goat anti-human antibody conjugated to horseradish peroxidase and Ultra TMB (Thermo Fisher Scientific) detection.

[2] = biological target: T2, human CD71 (transferrin receptor protein 1, TfR1) on human cell lines (human, UniProt P02786 1-760); assay: FACS on H292 cells, uncleaved
T2 construct: whole, on cells; also called huCD71
Method: In this study, the binding of the antibodies of the present disclosure to the indicated cell lines were performed using a standard FACS labelling method. […] These activatable antibodies include the light chain of the correspondingly named sequence listed above in Table C. The cells were labeled with the indicated test article at the indicated concentrations and subsequently detected with an Alexa Fluor 647 labeled goat anti-human IgG secondary antibody.

[3] = biological target: T2, human CD71 (transferrin receptor …); assay: FACS on MDA MB 231 cells
Method: (§2) In this study, the binding of the antibodies of the present disclosure to the indicated cell lines were performed using a standard FACS labelling method.

[4] = biological target: T2, human CD71 (transferrin receptor …); assay: FACS on H292 cells
Method: as §2

[5] = biological target: T2, human CD71 (transferrin receptor …); assay: FACS on HCC1806 cells
Method: as §2

[6] = biological target: T1, recombinant human CD71 protein; assay: ELISA; Kd against CD71 21.12
Method: as §1

[7] = biological target: T1, recombinant human CD71 protein; assay: ELISA, 1 µg/mL CD71, uncleaved
Method: as §1

T1 sequence (P02786 89-760 limits assumed): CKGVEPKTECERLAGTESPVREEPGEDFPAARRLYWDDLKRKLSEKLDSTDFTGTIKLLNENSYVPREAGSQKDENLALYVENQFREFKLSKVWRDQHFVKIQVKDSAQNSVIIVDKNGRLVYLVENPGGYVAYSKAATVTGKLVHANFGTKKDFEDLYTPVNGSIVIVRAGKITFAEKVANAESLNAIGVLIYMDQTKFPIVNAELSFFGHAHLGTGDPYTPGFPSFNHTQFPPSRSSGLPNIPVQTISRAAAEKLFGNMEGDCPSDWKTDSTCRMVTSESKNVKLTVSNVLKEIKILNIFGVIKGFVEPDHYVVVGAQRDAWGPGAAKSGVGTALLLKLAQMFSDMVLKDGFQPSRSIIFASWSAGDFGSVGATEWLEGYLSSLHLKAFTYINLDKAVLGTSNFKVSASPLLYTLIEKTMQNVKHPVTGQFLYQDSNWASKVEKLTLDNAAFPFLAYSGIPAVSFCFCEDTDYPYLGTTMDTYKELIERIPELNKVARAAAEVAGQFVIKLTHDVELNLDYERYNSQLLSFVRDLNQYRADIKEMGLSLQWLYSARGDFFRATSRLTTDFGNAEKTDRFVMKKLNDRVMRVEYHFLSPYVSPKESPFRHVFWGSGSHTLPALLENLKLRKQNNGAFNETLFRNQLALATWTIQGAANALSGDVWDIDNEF
T2 sequence (P02786 whole entry): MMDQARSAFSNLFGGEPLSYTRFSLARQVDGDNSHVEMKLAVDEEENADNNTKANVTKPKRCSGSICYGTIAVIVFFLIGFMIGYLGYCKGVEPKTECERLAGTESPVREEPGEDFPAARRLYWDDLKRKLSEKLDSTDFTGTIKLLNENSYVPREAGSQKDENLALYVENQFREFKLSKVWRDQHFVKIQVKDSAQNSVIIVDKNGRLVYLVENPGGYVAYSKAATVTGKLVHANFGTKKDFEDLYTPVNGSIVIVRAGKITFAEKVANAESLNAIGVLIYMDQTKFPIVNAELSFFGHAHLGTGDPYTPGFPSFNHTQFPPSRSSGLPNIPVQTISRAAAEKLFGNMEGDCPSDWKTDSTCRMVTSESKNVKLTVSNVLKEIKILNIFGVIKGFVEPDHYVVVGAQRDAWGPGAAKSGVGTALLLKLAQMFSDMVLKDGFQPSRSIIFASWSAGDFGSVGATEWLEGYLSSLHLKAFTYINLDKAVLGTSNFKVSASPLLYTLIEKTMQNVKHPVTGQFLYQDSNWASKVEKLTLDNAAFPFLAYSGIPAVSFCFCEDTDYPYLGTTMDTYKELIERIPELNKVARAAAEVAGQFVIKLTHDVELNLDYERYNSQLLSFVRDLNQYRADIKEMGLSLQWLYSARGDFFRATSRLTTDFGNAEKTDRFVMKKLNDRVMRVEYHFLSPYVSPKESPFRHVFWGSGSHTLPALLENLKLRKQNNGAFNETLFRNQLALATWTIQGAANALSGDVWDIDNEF

| Binder | Kd [1] | Kd [2] | other results |
| --- | --- | --- | --- |
| CD71 TF02.13-3001-PEG2-vc-MMAD (antibody, human IgG1, kappa, PEG2-vc-MMAD conjugated to the antibody; chain and residues not stated) heavy: not shown light: QGQSGQGNLCTEHSAALDCRSYGGGSSGGSAVGLLAPPGGLSGRSDNHGGSDIQMTQSPSSLSASVGDRVTITCSASSSVYYMYWFQQKPGKAPKLWIYSTSNLASGVPSRFSGSGSGTDYTLTISSMQPEDFATYYCQQRRNYPYTFGQGTKLEIKRTVAAPSVFIFPPSDEQLKSGTASVVCLLNNFYPREAKVQWKVDNALQSGNSQESVTEQDSKDSTYSLSSTLTLSKADYEKHKVYACEVTHQGLSSPVTKSFNRGEC | – | – | Kd [3]: 52.6 nM |
| CD71 TF02.13-3001-vc-MMAE (antibody, human IgG1, kappa, vc-MMAE conjugated to the antibody; chain and residues not stated) heavy: not shown light: QGQSGQGNLCTEHSAALDCRSYGGGSSGGSAVGLLAPPGGLSGRSDNHGGSDIQMTQSPSSLSASVGDRVTITCSASSSVYYMYWFQQKPGKAPKLWIYSTSNLASGVPSRFSGSGSGTDYTLTISSMQPEDFATYYCQQRRNYPYTFGQGTKLEIKRTVAAPSVFIFPPSDEQLKSGTASVVCLLNNFYPREAKVQWKVDNALQSGNSQESVTEQDSKDSTYSLSSTLTLSKADYEKHKVYACEVTHQGLSSPVTKSFNRGEC | – | – | Bmax (MFI) [4]: 1850 MFI; Kd [4]: 53.8 nM |
| CD71 TF02.13-3001-spdb-DM4 (antibody, human IgG1, kappa, spdb-DM4 conjugated to the antibody; chain and residues not stated) heavy: not shown light: QGQSGQGNLCTEHSAALDCRSYGGGSSGGSAVGLLAPPGGLSGRSDNHGGSDIQMTQSPSSLSASVGDRVTITCSASSSVYYMYWFQQKPGKAPKLWIYSTSNLASGVPSRFSGSGSGTDYTLTISSMQPEDFATYYCQQRRNYPYTFGQGTKLEIKRTVAAPSVFIFPPSDEQLKSGTASVVCLLNNFYPREAKVQWKVDNALQSGNSQESVTEQDSKDSTYSLSSTLTLSKADYEKHKVYACEVTHQGLSSPVTKSFNRGEC | – | – | Kd [3]: 46.9 nM; Kd [5]: ~200 nM |
| CD71 Ab21.12-PEG2-vc-MMAD (antibody, human IgG1, kappa, PEG2-vc-MMAD conjugated to the antibody; chain and residues not stated, antibody drug conjugate of Ab21.12) heavy: not shown light: DIQMTQSPSSLSASVGDRVTITCSASSSVYYMYWFQQKPGKAPKLWIYSTSNLASGVPSRFSGSGSGTDYTLTISSMQPEDFATYYCQQRRNYPYTFGQGTKLEIKRTVAAPSVFIFPPSDEQLKSGTASVVCLLNNFYPREAKVQWKVDNALQSGNSQESVTEQDSKDSTYSLSSTLTLSKADYEKHKVYACEVTHQGLSSPVTKSFNRGEC | – | – | Kd [3]: 1.47 nM |
| CD71 Ab 21.12-vc-MMAE (antibody, human IgG1, kappa, vc-MMAE conjugated to the antibody; chain and residues not stated, antibody drug conjugate of Ab21.12) heavy: not shown light: DIQMTQSPSSLSASVGDRVTITCSASSSVYYMYWFQQKPGKAPKLWIYSTSNLASGVPSRFSGSGSGTDYTLTISSMQPEDFATYYCQQRRNYPYTFGQGTKLEIKRTVAAPSVFIFPPSDEQLKSGTASVVCLLNNFYPREAKVQWKVDNALQSGNSQESVTEQDSKDSTYSLSSTLTLSKADYEKHKVYACEVTHQGLSSPVTKSFNRGEC | – | – | Bmax (MFI) [4]: 1600 MFI; Kd [4]: 1.33 nM; Kd [5]: 6.4 nM |
| CD71 Ab 21.12-spdb-DM4 (antibody, human IgG1, kappa, spdb-DM4 conjugated to the antibody; chain and residues not stated, antibody drug conjugate of Ab21.12) heavy: not shown light: DIQMTQSPSSLSASVGDRVTITCSASSSVYYMYWFQQKPGKAPKLWIYSTSNLASGVPSRFSGSGSGTDYTLTISSMQPEDFATYYCQQRRNYPYTFGQGTKLEIKRTVAAPSVFIFPPSDEQLKSGTASVVCLLNNFYPREAKVQWKVDNALQSGNSQESVTEQDSKDSTYSLSSTLTLSKADYEKHKVYACEVTHQGLSSPVTKSFNRGEC | – | – | Kd [3]: 1.24 nM |
| anti-human CD71 TF02-2001 activatable antibody (antibody, human IgG1, kappa) heavy: not shown light: QGQSGQGNLCTEHSFALDCRSYGGGSSGGSISSGLLSGRSDNHGGGSDIQMTQSPSSLSASVGDRVTITCSASSSVYYMYWFQQKPGKAPKLWIYSTSNLASGVPSRFSGSGSGTDYTLTISSMQPEDFATYYCQQRRNYPYTFGQGTKLEIKRTVAAPSVFIFPPSDEQLKSGTASVVCLLNNFYPREAKVQWKVDNALQSGNSQESVTEQDSKDSTYSLSSTLTLSKADYEKHKVYACEVTHQGLSSPVTKSFNRGEC | – | – | ME (masking efficiency) [6]: 153 fold; Kd [7]: 21.4 nM |
| CD71 TF02.13-2001-spdb-DM4 (antibody, human IgG1, kappa, spdb-DM4 conjugated to the antibody; chain and residues not stated) heavy: not shown light: QGQSGQGNLCTEHSAALDCRSYGGGSSGGSISSGLLSGRSDNHGGGSDIQMTQSPSSLSASVGDRVTITCSASSSVYYMYWFQQKPGKAPKLWIYSTSNLASGVPSRFSGSGSGTDYTLTISSMQPEDFATYYCQQRRNYPYTFGQGTKLEIKRTVAAPSVFIFPPSDEQLKSGTASVVCLLNNFYPREAKVQWKVDNALQSGNSQESVTEQDSKDSTYSLSSTLTLSKADYEKHKVYACEVTHQGLSSPVTKSFNRGEC | – | – | Kd [5]: ~200 nM |
| anti-human CD71 TF02.13-2008 activatable antibody (antibody, human IgG1, kappa) heavy: not shown light: QGQSGQGNLCTEHSAALDCRSYGGGSSGGSISSGLLSGRSDQHGGGSDIQMTQSPSSLSASVGDRVTITCSASSSVYYMYWFQQKPGKAPKLWIYSTSNLASGVPSRFSGSGSGTDYTLTISSMQPEDFATYYCQQRRNYPYTFGQGTKLEIKRTVAAPSVFIFPPSDEQLKSGTASVVCLLNNFYPREAKVQWKVDNALQSGNSQESVTEQDSKDSTYSLSSTLTLSKADYEKHKVYACEVTHQGLSSPVTKSFNRGEC | 15.1 nM | 90 nM | – |
| anti-human CD71 TF02.13-2007 activatable antibody (antibody, human IgG1, kappa) heavy: not shown light: QGQSGQGNLCTEHSAALDCRSYGGGSSGGSISSGLLSGRSDIHGGGSDIQMTQSPSSLSASVGDRVTITCSASSSVYYMYWFQQKPGKAPKLWIYSTSNLASGVPSRFSGSGSGTDYTLTISSMQPEDFATYYCQQRRNYPYTFGQGTKLEIKRTVAAPSVFIFPPSDEQLKSGTASVVCLLNNFYPREAKVQWKVDNALQSGNSQESVTEQDSKDSTYSLSSTLTLSKADYEKHKVYACEVTHQGLSSPVTKSFNRGEC | – | 70.3 nM | – |
| anti-human CD71 TF02.13-2011 activatable antibody (antibody, human IgG1, kappa) heavy: not shown light: QGQSGQGNLCTEHSAALDCRSYGGGSSGGSISSGLLSGRSDNPGGGSDIQMTQSPSSLSASVGDRVTITCSASSSVYYMYWFQQKPGKAPKLWIYSTSNLASGVPSRFSGSGSGTDYTLTISSMQPEDFATYYCQQRRNYPYTFGQGTKLEIKRTVAAPSVFIFPPSDEQLKSGTASVVCLLNNFYPREAKVQWKVDNALQSGNSQESVTEQDSKDSTYSLSSTLTLSKADYEKHKVYACEVTHQGLSSPVTKSFNRGEC | 4.27 nM | 57.1 nM | – |

Further lines, with some results ahead:

| Kd [1] | Kd [2] | Binder | other results |
| --- | --- | --- | --- |
| 2.21 nM | 86.7 nM | anti-human CD71 TF02.13-3007 activatable antibody (antibody, human IgG1, kappa) heavy: not shown light: QGQSGQGNLCTEHSAALDCRSYGGGSSGGSAVGLLAPPGGLSGRSDIHGGSDIQMTQSPSSLSASVGDRVTITCSASSSVYYMYWFQQKPGKAPKLWIYSTSNLASGVPSRFSGSGSGTDYTLTISSMQPEDFATYYCQQRRNYPYTFGQGTKLEIKRTVAAPSVFIFPPSDEQLKSGTASVVCLLNNFYPREAKVQWKVDNALQSGNSQESVTEQDSKDSTYSLSSTLTLSKADYEKHKVYACEVTHQGLSSPVTKSFNRGEC | – |
| 0.778 nM | 67.4 nM | anti-human CD71 TF02.13-3011 activatable antibody (antibody, human IgG1, kappa) heavy: not shown light: QGQSGQGNLCTEHSAALDCRSYGGGSSGGSAVGLLAPPGGLSGRSDNPGGSDIQMTQSPSSLSASVGDRVTITCSASSSVYYMYWFQQKPGKAPKLWIYSTSNLASGVPSRFSGSGSGTDYTLTISSMQPEDFATYYCQQRRNYPYTFGQGTKLEIKRTVAAPSVFIFPPSDEQLKSGTASVVCLLNNFYPREAKVQWKVDNALQSGNSQESVTEQDSKDSTYSLSSTLTLSKADYEKHKVYACEVTHQGLSSPVTKSFNRGEC | – |
| 2.61 nM | 97.8 nM | anti-human CD71 TF02.13-3008 activatable antibody (antibody, human IgG1, kappa) heavy: not shown light: QGQSGQGNLCTEHSAALDCRSYGGGSSGGSAVGLLAPPGGLSGRSDQHGGSDIQMTQSPSSLSASVGDRVTITCSASSSVYYMYWFQQKPGKAPKLWIYSTSNLASGVPSRFSGSGSGTDYTLTISSMQPEDFATYYCQQRRNYPYTFGQGTKLEIKRTVAAPSVFIFPPSDEQLKSGTASVVCLLNNFYPREAKVQWKVDNALQSGNSQESVTEQDSKDSTYSLSSTLTLSKADYEKHKVYACEVTHQGLSSPVTKSFNRGEC | – |
| 4.91 nM | 78.3 nM | anti-human CD71 TF02.13-3013 activatable antibody (antibody, human IgG1, without spacer 851) heavy: not shown VL: QGQSGQGNLCTEHSAALDCRSYGGGSSGGSAVGLLAPPGGLSGRSANIGGSDIQMTQSPSSLSASVGDRVTITCSASSSVYYMYWFQQKPGKAPKLWIYSTSNLASGVPSRFSGSGSGTDYTLTISSMQPEDFATYYCQQRRNYPYTFGQGTKLEIK | – |
| 1.64 nM | 39.1 nM | anti-human CD71 TF02.13-2012 activatable antibody (antibody, human IgG1, kappa) heavy: not shown light: QGQSGQGNLCTEHSAALDCRSYGGGSSGGSISSGLLSGRSANPGGGSDIQMTQSPSSLSASVGDRVTITCSASSSVYYMYWFQQKPGKAPKLWIYSTSNLASGVPSRFSGSGSGTDYTLTISSMQPEDFATYYCQQRRNYPYTFGQGTKLEIKRTVAAPSVFIFPPSDEQLKSGTASVVCLLNNFYPREAKVQWKVDNALQSGNSQESVTEQDSKDSTYSLSSTLTLSKADYEKHKVYACEVTHQGLSSPVTKSFNRGEC | – |
| 3.25 nM | 70.3 nM | anti-human CD71 TF02.13-2013 activatable antibody (antibody, human IgG1, kappa) heavy: not shown light: QGQSGQGNLCTEHSAALDCRSYGGGSSGGSISSGLLSGRSANIGGGSDIQMTQSPSSLSASVGDRVTITCSASSSVYYMYWFQQKPGKAPKLWIYSTSNLASGVPSRFSGSGSGTDYTLTISSMQPEDFATYYCQQRRNYPYTFGQGTKLEIKRTVAAPSVFIFPPSDEQLKSGTASVVCLLNNFYPREAKVQWKVDNALQSGNSQESVTEQDSKDSTYSLSSTLTLSKADYEKHKVYACEVTHQGLSSPVTKSFNRGEC | – |
